Data on one molecule can be found in patent US20250236663A1.

Assay [1] has as its target Recombinant human FAM19A5 protein (His-tagged) (human) (UniProt Q7Z5A7). Briefly: ELISA, N'-Term His. Set-up: unit not given here. In general terms: ELISA stands for enzyme-linked immunosorbent assay.
Assay [2] has the same target. The experiment in a line: ELISA, N'-Term His; R² 0.9422.
The target is the same in assay [3]. Briefly: ELISA on coated His-tagged FAM19A5 (positive control); the bar ends at the top of the axis.
Assay [4] has as its target FAM19A5 epitope fragment F4 (BSA-conjugated) (human). Briefly: ELISA on the coated BSA-conjugated fragment.
For assay [5], the target named is FAM19A5 epitope fragment F1 (BSA-conjugated) (human). Briefly: ELISA on the coated BSA-conjugated fragment.
Assay [6] has as its target FAM19A5 epitope fragment F3 (BSA-conjugated) (human). Briefly: ELISA on the coated BSA-conjugated fragment.
In assay [7] the target is FAM19A5 epitope fragment F6 (BSA-conjugated) (human). Briefly: ELISA on the coated BSA-conjugated fragment.
Assay [8] concerns the target FAM19A5 epitope fragment F2 (BSA-conjugated) (human). The experiment in a line: ELISA on the coated BSA-conjugated fragment.

B1: Anti-FAM19A5 (P2-C12) (antibody, V domains shown)
VH: QSLEESGGRLVTPGTPLTLTCTVSGFSLSTYAVTWVRQAPGKGLEWIGYINWRGGTSYANWAKGRFTISKTSSTTVDLKMTSPTTEDTATYFCARDASSGAAFGSYGMDPWGPGTLVTVSS
VL: ELDMTQTPSSVSAAVGGTVTIKCQASQSISSYLSWYQQKPGQPPKLLIYEASKLASGVPSRFSGSGYGTEFTLTISDLECADAATYYCQQGYSSTNVWNAFGGGTNVEIK
In the case of B1, in assay [1], the Bmax stood at 1.73. Further, the equilibrium dissociation constant (Kd) (in general, the constant that tells how readily two partners part at equilibrium) in assay [2] is 7.64 nM. The O.D (492nm) in assay [3] is 4; in assay [4], 0.162; in assay [5] it was 0.139; in assay [6] it was 0.224; in assay [7] it was 0.139; in assay [8], 0.394.
